These are literature values, as cited in publication PMC4332414.

This data set concerns the target Collagen type II (UniProt P02458). Put plainly: surface plasmon resonance.

DDR2 DS domain, sequence (Q16832 30-185): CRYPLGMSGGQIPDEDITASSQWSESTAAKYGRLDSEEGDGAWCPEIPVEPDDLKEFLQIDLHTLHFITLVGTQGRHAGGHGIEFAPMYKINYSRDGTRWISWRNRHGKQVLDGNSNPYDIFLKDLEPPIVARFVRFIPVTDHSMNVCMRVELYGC
Collagen type II, sequence (P02458 182-1241): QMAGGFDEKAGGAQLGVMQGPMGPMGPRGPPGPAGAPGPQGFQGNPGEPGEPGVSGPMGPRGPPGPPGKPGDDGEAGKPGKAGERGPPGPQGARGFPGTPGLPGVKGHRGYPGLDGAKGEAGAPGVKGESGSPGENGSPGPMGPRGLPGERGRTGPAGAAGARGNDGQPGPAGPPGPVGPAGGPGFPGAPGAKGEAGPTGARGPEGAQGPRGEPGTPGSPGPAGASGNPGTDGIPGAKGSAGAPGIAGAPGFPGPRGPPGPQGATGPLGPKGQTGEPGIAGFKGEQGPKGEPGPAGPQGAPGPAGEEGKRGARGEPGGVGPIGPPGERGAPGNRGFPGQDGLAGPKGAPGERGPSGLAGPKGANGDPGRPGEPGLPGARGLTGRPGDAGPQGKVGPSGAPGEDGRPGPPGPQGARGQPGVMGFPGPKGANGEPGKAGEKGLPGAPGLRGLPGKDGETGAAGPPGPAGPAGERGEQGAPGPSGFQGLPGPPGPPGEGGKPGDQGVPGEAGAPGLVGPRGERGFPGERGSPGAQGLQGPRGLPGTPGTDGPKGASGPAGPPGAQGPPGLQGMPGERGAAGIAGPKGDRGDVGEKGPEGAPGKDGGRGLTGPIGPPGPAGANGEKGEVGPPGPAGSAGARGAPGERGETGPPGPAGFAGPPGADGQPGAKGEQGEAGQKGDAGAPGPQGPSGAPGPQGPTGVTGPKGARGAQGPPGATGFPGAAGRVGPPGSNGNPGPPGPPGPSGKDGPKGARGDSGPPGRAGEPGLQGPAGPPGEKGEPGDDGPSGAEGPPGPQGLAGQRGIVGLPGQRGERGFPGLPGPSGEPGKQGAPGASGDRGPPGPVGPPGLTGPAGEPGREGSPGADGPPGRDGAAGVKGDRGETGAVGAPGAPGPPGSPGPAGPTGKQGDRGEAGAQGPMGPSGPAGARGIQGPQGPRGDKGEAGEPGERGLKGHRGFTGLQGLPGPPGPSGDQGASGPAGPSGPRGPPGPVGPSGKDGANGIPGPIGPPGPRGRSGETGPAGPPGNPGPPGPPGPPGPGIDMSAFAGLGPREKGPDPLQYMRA

As for DDR2 DS domain (from UniProt Q16832), the Kd was 25 µM.
